Reference: article PMC11124806, “Optimization of Surface Functionalizations for Ring Resonator-Based Biosensors”

Legend:
thrombin (Thr) = thrombin (Thr) (UniProt P00734;P00734 328-363;364-622); experiment: microring resonator (label-free photonic biosensor); 100 nM thrombin, 0.05% Tween 20, MCH-passivated chip; about 71% retained after buffer wash; CRP: 20 mM Hepes, 120 mM NaCl, 5 mM KCl, 1 mM CaCl2, 1 mM MgCl2, pH 7.3, room temperature, 30 min; thrombin: buffer with 0.05% Tween 20 (composition and tempera)
C-reactive protein (CRP) = target: T1, C-reactive protein (CRP) (UniProt P02741 19-224); experiment: surface sandwich chemiluminescence (anti-CRP antibody-HRP); 100 nM CRP, 1 mM Ca2+, 1 mM Mg2+; still binds after two months storage at 4 C; CRP: 20 mM Hepes, 120 mM NaCl, 5 mM KCl, 1 mM CaCl2, 1 mM MgCl2, pH 7.3, room temperature, 30 min; thrombin: buffer with 0.05% Tween 20 (composition and temperature not in material); settings: protein: commercial; chain copies: 5; label: 3' TAMRA on some amounts
T1 sequence: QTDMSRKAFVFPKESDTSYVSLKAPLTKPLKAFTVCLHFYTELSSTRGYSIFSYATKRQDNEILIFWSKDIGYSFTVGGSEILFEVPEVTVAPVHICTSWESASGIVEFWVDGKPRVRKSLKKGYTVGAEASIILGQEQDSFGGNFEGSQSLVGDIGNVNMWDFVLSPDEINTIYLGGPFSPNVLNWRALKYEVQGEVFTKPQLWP

Binder	binding result (thrombin (Thr))	binding result (C-reactive protein (CRP))
AGTCCGTGGTAGGGCAGGTTGGGGTGACT (structured_DNA, 5' thiol (5ThioMC6-D, reduced), immobilized on mercaptosilane) [a-Thr]	binds	
CGAAGGGGATTCGAGGGGTGATTGCGTGCTCCATTTGGTG (ssDNA, 5' thiol (5ThioMC6-D, reduced), immobilized on mercaptosilane) [a-CRP]		binds
